Results taken from the supplement of paper PMC9170038.

Tested on: MS2 coat protein
Experiment: apparent KD of MS2 coat protein; designed switch direction (-1 OFF switch, 1 ON switch): 1; higher = weaker reporter binding
Method in brief: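 The reported apparent KD is a per-design median over clusters, from curve fits of normalised cluster fluorescence. Protein titrations used SNAP-549-labelled MS2 coat protein, doubled from 0.7 or 1.5 nM to 3 µM, in Tris-HCl pH 7.5 buffer with KCl, MgCl2, BSA, DTT, tRNA and Tween-20, with no input, 200 uM small-molecule ligand, or an oligonucleotide input. The RNA switches were transcribed on Illumina chips by stalled E. coli RNA polymerase.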

[1] = Eterna round: R95, input ligand: FMN 200 uM
[2] = Eterna round: R95, input ligand: microRNA oligo, concentration not stated
[3] = Eterna round: R95, input ligand: none
[4] = input ligand: microRNA oligo, concentration not stated

| Sequence | apparent KD of MS2 coat protein [1] [nM] | apparent KD of MS2 coat protein [2] [nM] | apparent KD of MS2 coat protein [3] [nM] | apparent KD of MS2 coat protein (input ligand: FMN 200 uM) [nM] | apparent KD of MS2 coat protein [4] [nM] | apparent KD of MS2 coat protein (input ligand: none) [nM] |
| --- | --- | --- | --- | --- | --- | --- |
| GGAGCCGGUACUGAGGAUAUUCAUCUUAAAACAUGAGGAUCACCCAUGUAGGCCAGAAGGCCUUGGGAGAAGGCAGAUCGGCUCC [Biseusra - 7] (puzzle: Same State 2) | 20 | 52.2 | 66 |  |  |  |
| GGAGGACAUGAGGAUCACCCAUGUGGAUGGGCGCUAGGAUAUGCGAGAGGAGGGAGUGGAGCAGAAGGAGUGGGUU [JR_SS1_Sub043] (puzzle: Same State 1) |  | 50.3 |  |  |  |  |
| GGAGUCGGCACUGAGGAUAUUCAUAUUUAAACAUGAGGAUCACCCAUGUAGGCCAGAAGGCCUUGGGAGAAGGCAGGUCGGCUCG [salish99_ss2_r3_084] (puzzle: Same State 2) | 22.5 | 154 | 241 |  |  |  |
| GGAUCGUCGGCAGGAUAUGAGCAAGUGCAUCGAUCAGAAGGGUCGAGUCCUAGAAGGUAAAGCACAUGAGGAUCACCCAUGUAG [Eternabot solution 39] (Eterna round: R96, puzzle: Same State NG 1) |  |  |  | 40.7 | 63.7 | 96.3 |
| GGCAGGUGCAGGCUUGCUUGCACCUGGAAACAUGAGGAUCACCCAUGUUUGGGACAAGCUUUGCUCCUCGUCUUGUC [JL ViennaUCT Isusreraar mod 2] (Eterna round: R96, puzzle: Sensor for hsa-mir-208a) |  |  |  | 38.4 | 39.2 | 42.8 |
| GGCAGGUGCAGGCUUGCUUGCACCUGGAAACAUGAGGAUCACCCAUGUUUGGGACAAGCUUUGCUCCUCGUCUUGUC [JL ViennaUCT Isusreraar mod 2] (puzzle: Sensor for hsa-mir-208a) | 28.2 | 36.5 | 36.7 |  |  |  |
| GGCCAGAGUCAAGGAUAUGCUACCGUUUCGGUAGCAGAAGGUGAUCACAUGAGGAUCACCCAUGUAUACUGCGAGAGUAGGGCC [JL SSNG1 3.66] (Eterna round: R96, puzzle: Same State NG 1) |  |  |  | 94.5 | 23.6 | 197 |
| GGCCAGAGUCAAGGAUAUGCUACCGUUUCGGUAGCAGAAGGUGAUCACAUGAGGAUCACCCAUGUUUACUGCGAGAGCAUGGCC [JL SSNG1 3.68] (Eterna round: R96, puzzle: Same State NG 1) |  |  |  | 809 | 103 | 34.1 |
| GGCCAGAGUCAAGGAUAUGCUACCGUUUCGGUAGCAGAAGGUGAUCACAUGAGGAUCACCCAUGUUUACUGCGAGAGUAUGGCC [JL SSNG1 3.67] (Eterna round: R96, puzzle: Same State NG 1) |  |  |  | 661 | 197 | 214 |
| GGCGAACAGGCUAACAUGAGGAUCACCCAUGUGGACUUCGUGUAGGAUAUCGGGAAGGAGGAAACCGAGAAGGGCGAAGAAGCC [AK SSNG3-V2-49.1] (Eterna round: R96, puzzle: Same State NG 3) |  |  |  | 55.2 | 48.1 | 55.1 |
| GGCGCCGGCGCAGGAUAUAAUAGCACCAACAAAUUAGAAGGGUGUCUGACUUAAACAUGAGGAUCACCCAUGUGCGCCACAAAA [Eternabot solution 2] (Eterna round: R96, puzzle: Same State NG 1) |  |  |  | 198 | 137 | 311 |
| GGCUAUCGCGUACGAUAGCUGAAGCGUGUACAUGAGGAUCACCCAUGUCAUGUACAAGCUUUUUGCUCGUCUUAUUG [JL-shm-2.33 JL mod] (puzzle: Sensor for hsa-mir-208a) | 155 | 18.2 | 328 |  |  |  |
| GGGCCAGCUUGUGCUGGGCCUUCGCAUGCACAUGAGGAUCACCCAUGUCGUGUACAUGCUUGGUGCCCGUCUUUAAA [Photon Torp-13] (puzzle: Sensor for hsa-mir-208a) | 102 | 13.9 | 103 |  |  |  |
| GGGUGUGGAAGGAAAGAUAGGAAAAGGAAACAUGAGGAUCACCCAUGUGAAGGAAGAAAGGGAGCUCGUCUUAUAAG [JR_SHM208A_Sub001] (puzzle: Sensor for hsa-mir-208a) | 27.4 | 22.8 | 23.5 |  |  |  |
| GGUAGGUUACUACCAAACAUGAGGAUCACCCAUGUAAGUGGGAAGGAUAUGGUACCUUUUAGGUACCAGAAGGUCCAUAUAGUU [JL Fiskers NG3ss - 2 mod 9] (Eterna round: R96, puzzle: Same State NG 3) |  |  |  | 405 | 141 | 501 |
| GGUAGGUUACUACCAGACAUGAGGAUCACCCAUGUAAGUGGGAAGGAUAUGGUACCUUUUAGGUACCAGAAGGUCCAUAUAGUU [JL SSNG3 1.43] (Eterna round: R96, puzzle: Same State NG 3) |  |  |  | 253 | 429 | 1080 |
| GGUAGGUUACUACCAUACAUGAGGAUCACCCAUGUAAAUGGGAAGGAUAUGGUACCUAUUUGGUACCAGAAGGUCCAAUUAAUU [JL Fiskers NG3ss - 2 mod 3] (Eterna round: R96, puzzle: Same State NG 3) |  |  |  | 148 | 446 | 706 |
| GGUAUCUCCAGUGAGGAUAUGCGGCGUAGAACAUGAGGAUCACCCAUGUCCUUCGAAUGGGUUACGCAGAAGGCACUACGGUACC [Robot Arm] (puzzle: Same State 2) |  | 30.1 |  |  |  |  |
| GGUAUGGACACAGGAUAUGCUUACGAAACGUAAGCAGAAGGGUGAACAUGAGGAUCACCCAUGUACGUGCCAGGGCGUGAGCCC [JL SSNG1 1.77] (Eterna round: R96, puzzle: Same State NG 1) |  |  |  | 1420 | 29.8 | 920 |
| GGUAUUGACACAGGAUAUGCUUACGAAACGUAAGCAGAAGGGUGAACAUGAGGAUCACCCAUGUAUGUACCAGGGCGUGAGCCC [JL SSNG1 1.74] (Eterna round: R96, puzzle: Same State NG 1) |  |  |  | 169 | 875 | 1880 |
| GGUCCAGCCUGAGCUGGACAAAAGCAUGUACAUGAGGAUCACCCAUGUUCAUGUACAAGCUUUUUGCUCGUCUUAAG [salish99_208a_r3_037] (puzzle: Sensor for hsa-mir-208a) | 719 | 18 | 740 |  |  |  |
| GGUCCAGCCUGAGCUGGACAAAAGCAUGUACAUGAGGAUCACCCAUGUUCAUGUACAAGCUUUUUGCUCGUCUUACU [salish99_208a_r3_085] (puzzle: Sensor for hsa-mir-208a) | 681 | 15 | 553 |  |  |  |
| GGUCCAGCCUGAGCUGGACCGAAGCAUGUACAUGAGGAUCACCCAUGUCAUGUACAAGCUUUUUGCUCGUCUUAUUG [JL-shm-2.09 JL Mod] (puzzle: Sensor for hsa-mir-208a) | 307 | 14.9 | 285 |  |  |  |
